Measured values taken from US20220025344A1 (Novartis, published 2022).
Values joined by “and” are separate entries in the source; they are usually repeats but may differ in a detail not shown here. Identical values can stand only once.

T1: Co-expressed human LPL/soluble GPIHBP1 complex (human, UniProt P06858 28-475; Q8IV16 21-151, biotin at the C-terminal end of GPIHBP1 in the ELISA and SPR assays)
T1 construct: Non-covalent 1:1 complex; also called LPL/GPIHBP1 complex; LPL-GPIHBP1 complex
T1 sequence 1: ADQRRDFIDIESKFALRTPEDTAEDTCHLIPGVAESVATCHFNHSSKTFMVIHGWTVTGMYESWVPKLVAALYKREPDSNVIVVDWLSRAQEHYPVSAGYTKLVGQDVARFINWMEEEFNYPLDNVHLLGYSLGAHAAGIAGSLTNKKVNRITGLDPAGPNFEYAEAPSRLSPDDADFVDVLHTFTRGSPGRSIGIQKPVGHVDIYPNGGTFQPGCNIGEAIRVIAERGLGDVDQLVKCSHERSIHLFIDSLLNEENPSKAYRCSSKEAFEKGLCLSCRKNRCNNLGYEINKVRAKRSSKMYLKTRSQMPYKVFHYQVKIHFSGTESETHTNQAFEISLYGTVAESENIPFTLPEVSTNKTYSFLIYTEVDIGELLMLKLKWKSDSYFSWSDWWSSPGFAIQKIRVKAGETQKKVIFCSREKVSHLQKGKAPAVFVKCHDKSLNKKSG
T1 sequence 2: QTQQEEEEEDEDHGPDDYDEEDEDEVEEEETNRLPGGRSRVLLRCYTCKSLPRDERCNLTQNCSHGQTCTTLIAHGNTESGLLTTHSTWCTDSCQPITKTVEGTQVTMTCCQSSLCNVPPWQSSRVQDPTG


Experiments:
[1] = molecular target: Co-expressed human LPL/soluble GPIHBP1 complex (human) (UniProt P06858); assay: cell-based or functional assay
[2] = molecular target: Recombinant human LPL (mature human lipoprotein lipase, amino acids 28-475) (human) (UniProt P06858); assay: cell-based or functional assay
[3] = molecular target: T1, Co-expressed human LPL/soluble GPIHBP1 …; assay: TR-FRET dissociation of the LPL/GPIHBP1 complex: free hGPIHBP1-FHA binds the LPL of the complex and competes with the labelled GPIHBP1. FRET ratio falls from about 20000 to about 1000 between log -1 and log 3 (nM). [cont.) D]

Molecule | IC50 of ANGPTL3 inactivation of LPL enzymatic activity [1] | fold resistance to ANGPTL3 inactivation against LPL alone [1] | IC50 of ANGPTL3 inactivation of LPL enzymatic activity [2] | IC50 [3]
Human ANGPTL3(17-460)-FLAG-HIS6-Avi (from UniProt Q9Y5C1 17-460) (ligand) | 300 nM | > 37 fold | 7 nM and 8 nM | 
Human soluble GPIHBP1(21-151)-FLAG-HIS6-Avi (receptor, biotin on the C-terminal AviTag (BirA, site-specific) where used for immobilisation on streptavidin, also called solGPIHBP1 with C-terminal FHA tag; C-terminally biotinylated GPIHBP1) QTQQEEEEEDEDHGPDDYDEEDEDEVEEEETNRLPGGRSRVLLRCYTCKSLPRDERCNLTQNCSHGQTCTTLIAHGNTESGLLTTHSTWCTDSCQPITKTVEGTQVTMTCCQSSLCNVPPWQSSRVQDPTGDYKDDDDKHHHHHHGGGLNDIFEAQKIEWHE |  |  |  | 15 nM
